We go through six molecules from publication PMC2712734 (Nature structural & molecular biology, 2009).

A value given as a limit tells only on which side of the number the result lay.

Sequences and labels used below:
B5: CHMP1B, pure recombinant (natural protein, human, UniProt Q7LBR1 1-199, looked up)
chain: MSNMEKHLFNLKFAAKELSRSAKKCDKEEKAEKAKIKKAIQKGNMEVARIHAENAIRQKNQAVNFLRMSARVDAVAARVQTAVTMGKVTKSMAGVVKSMDATLKTMNLEKISALMDKFEHQFETLDVQTQQMEDTMSSTTTLTTPQNQVDMLLQEMADEAGLDLNMELPQGQTGSVGTSVASAEQDELSQRLARLRDQV
B6: CHMP2A, full length, pure recombinant (natural protein, human, UniProt O43633 1-222, looked up)
chain: MDLLFGRRKTPEELLRQNQRALNRAMRELDRERQKLETQEKKIIADIKKMAKQGQMDAVRIMAKDLVRTRRYVRKFVLMRANIQAVSLKIQTLKSNNSMAQAMKGVTKAMGTMNRQLKLPQIQKIMMEFERQAEIMDMKEEMMNDAIDDAMGDEEDEEESDAVVSQVLDELGLSLTDELSNLPSTGGSLSVAAGGKKAEAAASALADADADLEERLKNLRRD

Series [1] deals with B6. Put plainly: pull-down.
The target of series [2] is B6. Briefly: negative-stain transmission electron microscopy.
For series [3], the target named is B5. Put plainly: SPR. For orientation: Surface plasmon resonance follows binding to a sensor surface in real time, without labels.
Series [4] concerns the molecule itself. Put plainly: light scattering at 330 nm + negative-stain transmission electron microscopy.
Series [5] deals with the molecule itself. Put plainly: negative-stain transmission electron microscopy.
Series [6] deals with GST-IST1NTD Y165A (human, UniProt P53990 1-189, Y165A). Briefly: SPR.
Series [7] concerns the target GST-IST1NTD E67A (human, UniProt P53990 1-189, E67A). Briefly: SPR.
Series [8] deals with GST-IST1NTD Y64D (human, UniProt P53990 1-189, Y64D). Briefly: SPR.
The target of series [9] is GST-IST1NTD E168R (human, UniProt P53990 1-189, E168R). Briefly: SPR.
The target of series [10] is T1, CHMP3 V48D, A64D (human, UniProt Q9Y3E7 1-222, V48D | A64D).
T1 sequence (looked up): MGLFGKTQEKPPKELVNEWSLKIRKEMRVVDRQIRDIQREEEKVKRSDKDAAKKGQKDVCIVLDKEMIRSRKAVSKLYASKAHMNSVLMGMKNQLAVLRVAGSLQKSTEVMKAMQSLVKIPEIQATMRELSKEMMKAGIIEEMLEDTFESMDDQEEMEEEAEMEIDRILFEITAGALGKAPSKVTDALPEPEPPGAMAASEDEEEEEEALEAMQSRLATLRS
Briefly: negative-stain transmission electron microscopy.

The target of series [11] is T2, CHMP3 I168D, L169D (human, UniProt Q9Y3E7 1-222, I168D | L169D).
T2 sequence (looked up): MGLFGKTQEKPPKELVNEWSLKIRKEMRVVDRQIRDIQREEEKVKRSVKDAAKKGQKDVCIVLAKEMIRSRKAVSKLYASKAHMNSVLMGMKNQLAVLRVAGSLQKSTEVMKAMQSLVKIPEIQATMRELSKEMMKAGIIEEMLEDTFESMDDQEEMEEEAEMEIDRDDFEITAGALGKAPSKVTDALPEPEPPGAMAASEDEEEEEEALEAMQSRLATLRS
Briefly: negative-stain transmission electron microscopy.

Series [12] has as its target T3, GST-CHMP3 I168D, L169D (human, UniProt Q9Y3E7 1-222, I168D | L169D).
T3 sequence (looked up): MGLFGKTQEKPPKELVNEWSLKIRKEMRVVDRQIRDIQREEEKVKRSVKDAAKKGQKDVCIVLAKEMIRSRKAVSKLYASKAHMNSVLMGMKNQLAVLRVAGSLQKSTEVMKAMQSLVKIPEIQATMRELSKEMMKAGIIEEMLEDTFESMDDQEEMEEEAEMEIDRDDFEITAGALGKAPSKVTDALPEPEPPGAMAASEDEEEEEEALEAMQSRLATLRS
Put plainly: pull-down.

For series [13], the target named is T4, GST-CHMP3, wild type (human, UniProt Q9Y3E7 1-222).
T4 sequence (looked up): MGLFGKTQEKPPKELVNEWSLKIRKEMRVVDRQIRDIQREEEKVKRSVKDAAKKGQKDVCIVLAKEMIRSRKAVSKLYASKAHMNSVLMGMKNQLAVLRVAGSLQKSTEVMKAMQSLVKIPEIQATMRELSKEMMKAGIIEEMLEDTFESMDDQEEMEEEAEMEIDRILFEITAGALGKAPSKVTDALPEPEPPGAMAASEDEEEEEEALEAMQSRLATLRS
Briefly: pull-down.

The target of series [14] is T5, GST-CHMP3 V48D, A64D (human, UniProt Q9Y3E7 1-222, V48D | A64D).
T5 sequence (looked up): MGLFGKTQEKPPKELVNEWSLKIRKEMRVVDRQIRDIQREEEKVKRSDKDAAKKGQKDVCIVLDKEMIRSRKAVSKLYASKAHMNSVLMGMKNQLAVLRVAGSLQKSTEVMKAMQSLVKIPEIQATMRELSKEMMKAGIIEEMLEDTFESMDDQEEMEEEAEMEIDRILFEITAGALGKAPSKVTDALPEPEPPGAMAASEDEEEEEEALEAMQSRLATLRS
Briefly: pull-down.

B1: GST-CHMP3_(1-150) (domain or fragment, human, UniProt Q9Y3E7 1-150, looked up)
chain: MGLFGKTQEKPPKELVNEWSLKIRKEMRVVDRQIRDIQREEEKVKRSVKDAAKKGQKDVCIVLAKEMIRSRKAVSKLYASKAHMNSVLMGMKNQLAVLRVAGSLQKSTEVMKAMQSLVKIPEIQATMRELSKEMMKAGIIEEMLEDTFES
As for B1, the binding result in series [1] was “binds”.

B2: CHMP3_(1-150) (domain or fragment, human, UniProt Q9Y3E7 1-150, looked up)
chain: MGLFGKTQEKPPKELVNEWSLKIRKEMRVVDRQIRDIQREEEKVKRSVKDAAKKGQKDVCIVLAKEMIRSRKAVSKLYASKAHMNSVLMGMKNQLAVLRVAGSLQKSTEVMKAMQSLVKIPEIQATMRELSKEMMKAGIIEEMLEDTFES
With B2, in series [2], the binding result is recorded as “binds”.

B3: GST-IST1NTD, wild type (domain or fragment, human, UniProt P53990 1-189, looked up)
chain: MLGSGFKAERLRVNLRLVINRLKLLEKKKTELAQKARKEIADYLAAGKDERARIRVEHIIREDYLVEAMEILELYCDLLLARFGLIQSMKELDSGLAESVSTLIWAAPRLQSEVAELKIVADQLCAKYSKEYGKLCRTNQIGTVNDRLMHKLSVEAPPKILVERYLIEIAKNYNVPYEPDSVVMAEAPP
As usually defined, the Kd is the constant that tells how readily two partners part at equilibrium. With B3, the Kd in series [3] was 22 µM.

B4: IST1NTD (N-terminal domain of IST1, residues 1-189) (domain or fragment, human, UniProt P53990 1-189, looked up)
chain: MLGSGFKAERLRVNLRLVINRLKLLEKKKTELAQKARKEIADYLAAGKDERARIRVEHIIREDYLVEAMEILELYCDLLLARFGLIQSMKELDSGLAESVSTLIWAAPRLQSEVAELKIVADQLCAKYSKEYGKLCRTNQIGTVNDRLMHKLSVEAPPKILVERYLIEIAKNYNVPYEPDSVVMAEAPP
For B4, the binding result in series [4] was “binds”.
Consider B5, for which, in series [5], the binding result is “binds”. For the same molecule, the “fold reduction of binding affinity against wild type IST1NTD” value was over 8 fold in series [6], 6 fold in series [7], over 8 fold in series [8] and over 8 fold in series [9].
As for B6, the binding result in series [10], in series [11], in series [12], in [13] and in series [14] was “binds” throughout.
